Results taken from publication PMC4353811.

Key:
Psy3-Csm2-I40A/I83A = biological target: T1, Psy3-Csm2-I40A/I83A (Saccharomyces cerevisiae, UniProt Q12318;P40465 1-242;1-213, I40A;I83A;Csm2:); experiment: EMSA
T1 sequence 1: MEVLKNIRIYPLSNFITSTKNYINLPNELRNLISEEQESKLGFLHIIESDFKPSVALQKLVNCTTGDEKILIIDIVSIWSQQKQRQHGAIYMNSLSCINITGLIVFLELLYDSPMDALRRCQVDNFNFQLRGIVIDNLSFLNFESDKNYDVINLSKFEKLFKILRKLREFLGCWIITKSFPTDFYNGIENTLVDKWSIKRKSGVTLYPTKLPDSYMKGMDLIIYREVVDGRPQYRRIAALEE
T1 sequence 2: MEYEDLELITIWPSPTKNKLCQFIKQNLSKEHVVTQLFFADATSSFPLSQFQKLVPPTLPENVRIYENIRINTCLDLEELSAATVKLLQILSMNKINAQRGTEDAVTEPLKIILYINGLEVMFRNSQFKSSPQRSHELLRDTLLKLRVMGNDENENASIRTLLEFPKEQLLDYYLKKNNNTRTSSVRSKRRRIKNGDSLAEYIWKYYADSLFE

Psy3-Csm2-I83A/L87A = biological target: T2, Psy3-Csm2-I83A/L87A (Saccharomyces cerevisiae, UniProt Q12318;P40465 1-242;1-213, I83A;L87A;Csm2:); experiment: EMSA
T2 sequence 1: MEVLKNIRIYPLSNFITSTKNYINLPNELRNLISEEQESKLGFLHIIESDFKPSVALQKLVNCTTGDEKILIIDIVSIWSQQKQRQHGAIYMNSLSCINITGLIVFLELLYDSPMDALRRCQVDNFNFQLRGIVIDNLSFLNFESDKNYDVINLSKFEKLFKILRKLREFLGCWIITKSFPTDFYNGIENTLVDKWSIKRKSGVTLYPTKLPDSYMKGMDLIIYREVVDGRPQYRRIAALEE
T2 sequence 2: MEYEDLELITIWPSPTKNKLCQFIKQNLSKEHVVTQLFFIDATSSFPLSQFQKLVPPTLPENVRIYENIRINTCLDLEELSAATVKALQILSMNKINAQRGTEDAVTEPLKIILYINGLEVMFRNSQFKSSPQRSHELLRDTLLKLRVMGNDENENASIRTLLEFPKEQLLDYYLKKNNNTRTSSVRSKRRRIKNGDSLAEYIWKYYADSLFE

Psy3-Csm2 = biological target: T3, Psy3-Csm2 (Saccharomyces cerevisiae, UniProt Q12318;P40465 1-242;1-213); experiment: EMSA
T3 sequence 1: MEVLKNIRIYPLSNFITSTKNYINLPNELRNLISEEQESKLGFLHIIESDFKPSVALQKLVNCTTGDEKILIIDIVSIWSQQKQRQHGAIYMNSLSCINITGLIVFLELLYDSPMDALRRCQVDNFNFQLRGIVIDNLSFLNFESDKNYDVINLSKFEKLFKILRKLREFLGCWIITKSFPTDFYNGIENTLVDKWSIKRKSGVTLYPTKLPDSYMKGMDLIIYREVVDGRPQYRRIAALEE
T3 sequence 2: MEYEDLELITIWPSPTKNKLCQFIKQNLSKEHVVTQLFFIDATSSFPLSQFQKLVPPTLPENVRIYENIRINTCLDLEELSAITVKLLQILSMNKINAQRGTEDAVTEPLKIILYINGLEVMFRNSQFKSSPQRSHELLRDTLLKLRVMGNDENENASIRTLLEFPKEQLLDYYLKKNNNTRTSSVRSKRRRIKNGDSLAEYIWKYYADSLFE

Rad51;Psy3-Csm2 = Rad51;Psy3-Csm2 (Saccharomyces cerevisiae;Saccharomyces …, UniProt P25454;Q12318;P40465 1-400;1-242;1-213, |); experiment: EMSA and supershift

Measured: binding result

Chain of Rad51;Psy3-Csm2 (P25454 whole entry, one chain of several): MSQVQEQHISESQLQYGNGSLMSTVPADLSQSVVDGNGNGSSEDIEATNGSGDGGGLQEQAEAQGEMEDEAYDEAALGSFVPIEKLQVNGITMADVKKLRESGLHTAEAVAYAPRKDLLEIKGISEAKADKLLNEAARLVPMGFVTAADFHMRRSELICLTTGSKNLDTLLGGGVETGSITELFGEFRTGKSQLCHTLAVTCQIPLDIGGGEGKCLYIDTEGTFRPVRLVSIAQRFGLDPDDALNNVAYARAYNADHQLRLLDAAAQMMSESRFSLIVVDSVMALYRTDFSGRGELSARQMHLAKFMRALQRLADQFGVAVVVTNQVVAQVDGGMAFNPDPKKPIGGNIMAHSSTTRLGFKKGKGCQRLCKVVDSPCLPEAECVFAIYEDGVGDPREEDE

B1: 60-mer oligo-ssDNA (ssDNA)
DNA: TGGGTGAACCTGCAGGTGGGCAAAGATGTCCTAGCAATCCATTGTCTATGACGTCAAGCT
binds: all assays above
